{"source": "paper PMC11873350", "experiment_in_all_cases": "BLI", "key": {"SHH002-hu1-MICA (human)": {"target": "SHH002-hu1-MICA (human) (UniProt Q29983)", "sequence (Q29983 whole entry, looked up)": "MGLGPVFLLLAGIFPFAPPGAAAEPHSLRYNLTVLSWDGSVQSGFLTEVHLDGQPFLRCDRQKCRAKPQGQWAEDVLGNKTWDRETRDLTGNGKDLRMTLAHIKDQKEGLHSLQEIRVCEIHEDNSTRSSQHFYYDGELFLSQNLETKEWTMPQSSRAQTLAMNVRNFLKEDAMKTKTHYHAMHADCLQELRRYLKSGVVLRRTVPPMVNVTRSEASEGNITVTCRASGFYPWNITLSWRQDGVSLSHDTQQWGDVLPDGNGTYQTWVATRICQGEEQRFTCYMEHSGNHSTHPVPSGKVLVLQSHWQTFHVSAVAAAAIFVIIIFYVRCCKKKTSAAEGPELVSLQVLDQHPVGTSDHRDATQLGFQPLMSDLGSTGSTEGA"}, "rhNKG2D-Fc (human) [1]": {"target": "rhNKG2D-Fc (human) (UniProt P26718)"}, "rhNKG2D-Fc (human) [2]": {"target": "rhNKG2D-Fc (human) (UniProt P26718)", "remark": "listed apart in the source"}}, "note": "Like-named read-outs stand apart in the source and are kept apart here."}
{"substance": "rhFzd7-His (from UniProt O75084 33-574) (receptor)", "values": [{"measurement": "Kd", "setting": "SHH002-hu1-MICA (human)", "value": "< 0.001", "unit": "nM"}]}
{"substance": "rhMICA-His (from UniProt Q29983 24-383) (ligand)", "values": [{"measurement": "Kd", "setting": "rhNKG2D-Fc (human) [1]", "value": 1.26, "unit": "nM"}, {"measurement": "Kd", "setting": "rhNKG2D-Fc (human) [2]", "value": 12.6, "unit": "nM"}]}
{"substance": "rhNKG2D-Fc (from UniProt P26718 73-216) (Fc fusion)", "values": [{"measurement": "Kd", "setting": "SHH002-hu1-MICA (human)", "value": 45.2, "unit": "nM"}]}
